Measurements as given in paper PMC3144408 (The Journal of Cell Biology, 2011).
Ends that are not written are not given here.

What was measured:
MDA-MB-231 cells = assay: Colocalization of internalized β1-integrin with endogenous p120RasGAP; type: cell-based, human; conditions: integrin trafficking 45 min in the presence of primaquine; Pearson's correlation coefficient, n = 27 cells
[1] = molecular target: T1, GST-p120RasGAP GAP domain (p120 GAP WT, residues 714–1047) (human, UniProt P20936 714-1047); assay: pull-down
T1 sequence (looked up): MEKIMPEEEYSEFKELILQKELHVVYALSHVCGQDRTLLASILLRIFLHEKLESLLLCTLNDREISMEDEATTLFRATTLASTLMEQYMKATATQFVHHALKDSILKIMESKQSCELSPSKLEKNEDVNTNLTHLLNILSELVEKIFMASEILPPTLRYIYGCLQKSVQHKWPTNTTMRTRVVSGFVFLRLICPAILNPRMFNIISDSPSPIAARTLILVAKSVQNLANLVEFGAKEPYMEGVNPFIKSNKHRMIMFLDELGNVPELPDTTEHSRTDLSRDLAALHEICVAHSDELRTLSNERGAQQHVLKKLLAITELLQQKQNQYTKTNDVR

[2] = molecular target: T2, Rab21 (residues 15–225), recombinant, as used in the affinity and competition measurements (human, UniProt Q9UL25 15-225); assay: fluorescence polarisation
T2 sequence (looked up): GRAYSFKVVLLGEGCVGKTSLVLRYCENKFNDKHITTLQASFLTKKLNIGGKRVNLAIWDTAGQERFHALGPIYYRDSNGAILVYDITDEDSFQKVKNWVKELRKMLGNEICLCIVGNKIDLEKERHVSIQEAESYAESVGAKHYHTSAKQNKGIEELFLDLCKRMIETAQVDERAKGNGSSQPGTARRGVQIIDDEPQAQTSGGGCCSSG

[3] = molecular target: T3, p120RasGAP GAP domain R789A, recombinant, as used in fluorescence polarisation (human, UniProt P20936 714-1047, R789A); assay: fluorescence polarisation
T3 sequence (looked up): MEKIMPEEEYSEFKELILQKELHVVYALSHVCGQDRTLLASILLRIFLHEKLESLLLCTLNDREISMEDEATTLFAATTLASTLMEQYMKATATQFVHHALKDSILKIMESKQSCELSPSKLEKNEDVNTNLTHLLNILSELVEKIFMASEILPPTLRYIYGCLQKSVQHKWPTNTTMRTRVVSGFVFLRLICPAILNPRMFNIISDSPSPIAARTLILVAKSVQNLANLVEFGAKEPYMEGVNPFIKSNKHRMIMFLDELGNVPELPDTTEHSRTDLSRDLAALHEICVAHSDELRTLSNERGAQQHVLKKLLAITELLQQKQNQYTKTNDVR

COc1cc(NC(C)CCCN)c2ncccc2c1 (stereo not shown) [primaquine]
overlap (colocalization) of internalized β1-integrins with p120RasGAP (MDA-MB-231 cells): significantly increased the overlap of integrins with p120RasGAP

B1: biotinylated α1-integrin cytoplasmic domain peptide (peptide)
peptide: WKIGFFKRPLKKKMEKRPLKKKMEK
modifications: also: biotinylated, end not given here
binding result [1]: binds

B2: EDANS-conjugated α2-integrin cytoplasmic domain peptide (α2-cons, wild type) (peptide)
peptide: WKLGFFKRKYEKM
modifications: also: EDANS fluorophore coupled, end not given here
Kd [2]: 28 µM
binding result [3]: binds
